Substitutions are numbered along the chain they refer to. Values belong to the molecule of their own block, whether it stands above or below them.
Experiments:
human CD200R1 [1] = target: T1, human CD200R1 (Homo sapiens, UniProt Q8TD46); test: SPR binding kinetics, human CD200R1; settings: hCD200R1-his captured on anti-His CM5 chip, 1:1 Langmuir fit
T1 sequence (Q8TD46 25-348): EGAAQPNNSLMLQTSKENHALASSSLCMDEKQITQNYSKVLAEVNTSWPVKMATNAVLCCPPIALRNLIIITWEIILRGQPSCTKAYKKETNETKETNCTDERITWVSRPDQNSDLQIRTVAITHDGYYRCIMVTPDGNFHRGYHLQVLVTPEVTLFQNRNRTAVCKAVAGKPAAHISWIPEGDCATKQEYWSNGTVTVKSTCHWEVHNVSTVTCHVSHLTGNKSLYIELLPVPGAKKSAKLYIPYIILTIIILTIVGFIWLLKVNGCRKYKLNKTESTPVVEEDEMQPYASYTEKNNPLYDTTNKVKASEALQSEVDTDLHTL
Protocol: (§1) The CD200R1-specific binding ability of the antibodies (P001009 wt, P001009 v1, P001009 v2, P001009 v3, P001009 v4) selected in Example 14 was analyzed using surface plasma resonance (SPR). For the experiment, 30 μg/mL of an anti-histidine antibody was conjugated to a CM5 biacore chip via an amine bond while allowing to flow at 10 μl/min (10,000 RU). Then, 0.25 μg/mL of human or cynomolgus CD200R1 with dual His-tags was captured onto the completed chip for 60 seconds, and the binding ability of each antibody was analyzed. All experiments were performed by association of antibodies for 120 seconds and dissociation of antibodies for 600 seconds. The resulting graphs were fitted using a 1:1 Langmuir binding kinetic model (FIG. 16), and the kinetics of each antibody were calculated.

cynomolgus CD200R1 = test: SPR binding kinetics, cynomolgus CD200R1; settings: cynomolgus CD200R1-his captured on anti-His CM5 chip, 1:1 Langmuir fit
Protocol: as §1

human CD200R1 [2] = target: T1, human CD200R1; test: ELISA binding to human CD200R1; settings: ELISA, Example 14
Protocol: 96-well plates were coated with human CD200R1 (R&D systems, 3414-CD) and mouse CD200R1 protein (R&D systems, 2554-CD) at a concentration of 2 μg/mL at 4° C. for 16 hours and then were blocked with 3% skim milk. The result was treated with the antibodies at concentrations of 300 nM, 60 nM, 12 nM, 2.4 nM, 0.48 nM, 0.096 nM, and 0.0192 nM, and reacted at room temperature for 2 hours.
The result was washed with PBST and distilled water, the samples were bound with a goat-derived HRP-conjugated anti-human antibody (Invitrogen, 31482, Goat anti-Human IgG F(ab′)2 Secondary Antibody, HRP) for 1 hour at room temperature, and then washed again with PBST and distilled water. Color was developed with a TMB substrate solution (Thermo Scientific, 34029, 1-Step™ TMB-ELISA Ultra Substrate Solution). The color reaction was stopped with stop solution (Invitrogen, SS04, ELISA Stop Solution). The absorbance was measured at an optical density of 450 nm.

monkey CD200R1 = test: ELISA binding to monkey CD200R1; settings: Example 14
Excerpt: Therefore, the LC D51 and LC D92 sequences were not substituted during the optimization process. However, since LC N30 and LC N31 can play an important role in the specific binding of antibodies as paratopes, the sequences were substituted and optimized. Through rational design, LC S52 and LC S94 were substituted with K and R, respectively, to derive P001009v1, and LC S52 and LC D93 were substituted with K and R, respectively, to derive P001009v2. Further, P001009v3, in which LC N30 was substituted with S, and P001009v4, in which LC N31 was substituted with K, were derived and produced, and the binding ability to human, mouse, and monkey CD200R1 was analyzed by ELISA (FIG. 15). […] Both […] and variants thereof had very weak binding ability to mouse CD200R1 at concentrations up to 300 nM.

Ka (cynomolgus CD200R1): 2.82e+06 M⁻¹ s⁻¹
binding ability to monkey CD200R1 compared to parent (monkey CD200R1): significantly improved
B1: P001009v2: P001009 variant, LC S52 and LC D93 substituted with K and R; VH SEQ ID NO: 79 (antibody, V domains shown)
VH: EVQLLESGGGLVQPGGSLRLSCAASGFTFSSYDMSWVRQAPGKGLEWVSWISHGGGSIYYADSVKGRFTISRDNSKNTLYLQMNSLRAEDTAVYYCARDAPAYSAPLFDYWGQGTLVTVSS
VL: QSVLTQPPSASGTPGQRVTISCSGSSSNIGNNAVNWYQQLPGTAPKLLIYYDKNRPSGVPDRFSGSKSGTSASLAISGLRSEDEADYYCAAWDRSLSGYVFGGGTKLTVL
Ka (human CD200R1 [1]): 7.52e+06 M⁻¹ s⁻¹
binding ability to human CD200R1 compared to parent (human CD200R1 [2]): reduced

Ka (cynomolgus CD200R1): 3.71e+06 M⁻¹ s⁻¹
binding ability to monkey CD200R1 compared to parent (monkey CD200R1): improved
B2: P001009v4: P001009 variant, LC N31 substituted with K; VH SEQ ID NO: 79 (antibody, V domains shown)
VH: B1 VH
VL: B1 VL with N32K, K53S, R94D
Ka (human CD200R1 [1]): 6.74e+06 M⁻¹ s⁻¹
binding ability to human CD200R1 compared to parent (human CD200R1 [2]): reduced

From patent US20260263521A1, “ANTI-CD200R1 ANTIBODY AND USE THEREOF” (AIMED BIO INC., priority 2023, published 2026)
